Substrate in the series: O=c1ccn([C@H]2C[C@H](O)[C@@H](COP(=O)(O)OP(=O)(O)OP(=O)(O)O)O2)c(=O)[nH]1
The experiment in a line: purified protein. It counts as biochemical, Arabidopsis thaliana. Particulars: pH 7.6, 25 °C, 5 mM MgCl2, 100 mM KCl, 0.25 mM bicine, 50 nM enzyme.

B1: Arabidopsis dUTPase (Arabidopsis thaliana) (protein)
chain: MACVNEPSPKLQKLDRNGIHGDSSPSPFFKVKKLSEKAVIPTRGSPLSAGYDLSSAVDSKVPARGKALIPTDLSIAVPEGTYARIAPRSGLAWKHSIDVGAGVIDADYRGPVGVILFNHSDADFEVKFGDRIAQLIIEKIVTPDVVEVDDLDETVRGDGGFGSTGV
notes: full length, 166 residues; His tag removed by thrombin, extra Gly-Ser-His at N-terminus; expressed in E. coli JM103 (DE3); homotrimer
For the protein B1, the Michaelis constant (Km) was 0.4 ± 0.1 µM.

Usually Km stands for the substrate concentration at which the rate is half of its maximum.

Source of the values: paper PMC4678481, “Structural insights into the mechanism defining substrate affinity in Arabidopsis thaliana dUTPase: the role of tryptophan 93 in ligand orientation” (BMC Research Notes, 2015).
